Results published in the RNAGym collection of RNA variant scans (doi:10.1093/nar/gkz1192).

B1: CPEB3 Ribozyme (parent)
chain: UAACAGGGGGCCACAGCAGAAGCGUUCACGUCGCAGCCCCUGUCAGAUUCUGGUGAAUCUGCGAAUUCUGCUGUAUAUCUC

Variants of: B1
Experiment: self-cleavage, relative activity (ratio to wild type); higher = more cleavage; in vitro, sequencing
Outline: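 Barcoded CPEB3 ribozyme mutants, produced by rounds of error-prone PCR, self-cleaved while being transcribed with T7 RNA polymerase for 5 hours at 37°C and during a subsequent 15 min DNase I step before EDTA was added. Sequencing of template-switched cDNA on Illumina gave cleaved and total reads, and DNA sequencing assigned barcodes to variants. Each variant's relative activity is its cleaved/total read fraction divided by the unmutated ribozyme's fraction, averaged across three batches. A variant needed a minimum of 5 reads.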

Variant | self-cleavage
UAACGGGGGGCCAUAGCAGAAGCGUUCACGUCGCAGCCCCUGUCAGAUUCUGGUGAAUCUGCGAAUUCUGCUGUAUAUCUC [A5G C14U] | 0.8
UAACGGGGGGCCACAGCAGAAGCGUUCACGUCGCAGCCCCUGUCAGAUUCUGGUGAAUCUGAGAAUUCUGCUGUAUAUCUC [A5G C62A] | 0.22
UAACGGGGGGCCACAGCAGAAGCGUUCACGUCGCAGCCCCUGUCAGAUUCUGGUGAAUCUGUGAAUUCUGCUGUAUAUCUC [A5G C62U] | 0.35
UAACGGGGGGCCACAGCAGAAGCGUUCACGUCGCAGCCCCUGUCAGAUUCUGGUGAAUCUGGGAAUUCUGCUGUAUAUCUC [A5G C62G] | 0.14
UAACGGGGGGCCACAGCAGAAGCGUUUACGUCGCAGCCCCUGUCAGAUUCUGGUGAAUCUGCGAAUUCUGCUGUAUAUCUC [A5G C27U] | 0.13
UAACGGGGGGCCACAGCAGAAGCGUUAACGUCGCAGCCCCUGUCAGAUUCUGGUGAAUCUGCGAAUUCUGCUGUAUAUCUC [A5G C27A] | 0.44
UAACGGGGGGCCACAGCAGAAGCGUUCACGUCGCAGCCCCUGUCAGAUUCUGGUGAAUCUGCGAAUUAUGCUGUAUAUCUC [A5G C68A] | 0.46
UAACGGGGGGCCACAGCAGAAGCGUUCACGUCGCAGCUCCUGUCAGAUUCUGGUGAAUCUGCGAAUUCUGCUGUAUAUCUC [A5G C38U] | 0.46
UAACGGGGGGCCACAGCAGAAGCGUUCACGUCGCAGCGCCUGUCAGAUUCUGGUGAAUCUGCGAAUUCUGCUGUAUAUCUC [A5G C38G] | 0.37
UAACGGGGGGCCACAGCAGAAGCGUUCACGUCGCAGCACCUGUCAGAUUCUGGUGAAUCUGCGAAUUCUGCUGUAUAUCUC [A5G C38A] | 0.44
UAACGGGGGGCCACAGCAGAAGCGUUCACGUCGCAGCCACUGUCAGAUUCUGGUGAAUCUGCGAAUUCUGCUGUAUAUCUC [A5G C39A] | 0.39
UAACGGGGGGCCACAGCAGAAGCGUUCACGUCGCAGCCUCUGUCAGAUUCUGGUGAAUCUGCGAAUUCUGCUGUAUAUCUC [A5G C39U] | 0.67
UAACGGGGGGCCACAGCAGAAGCGUUCACGUCGGAGCCCCUGUCAGAUUCUGGUGAAUCUGCGAAUUCUGCUGUAUAUCUC [A5G C34G] | 0.52
UAACGGGGGGCCACAGCAGAAGCGUUCACGUCGCAGCCCAUGUCAGAUUCUGGUGAAUCUGCGAAUUCUGCUGUAUAUCUC [A5G C40A] | 0.26
UAACGGGGGGCCACAGCAGAAGCGUUCACGUCGCAGCCCUUGUCAGAUUCUGGUGAAUCUGCGAAUUCUGCUGUAUAUCUC [A5G C40U] | 0.27
UAACGGGGGGCCACAGCAGAAGCGUUCACGUCGCAGCCCGUGUCAGAUUCUGGUGAAUCUGCGAAUUCUGCUGUAUAUCUC [A5G C40G] | 0.22
UAACGGGGGGCCACAGAAGAAGCGUUCACGUCGCAGCCCCUGUCAGAUUCUGGUGAAUCUGCGAAUUCUGCUGUAUAUCUC [A5G C17A] | 0.3

Variant | self-cleavage
UAACGGGGGGCCACAGUAGAAGCGUUCACGUCGCAGCCCCUGUCAGAUUCUGGUGAAUCUGCGAAUUCUGCUGUAUAUCUC [A5G C17U] | 0.47
UAACGGGGGGCCACAGCAGAAGUGUUCACGUCGCAGCCCCUGUCAGAUUCUGGUGAAUCUGCGAAUUCUGCUGUAUAUCUC [A5G C23U] | 0.36
UAACGGGGGGCCACAGCAGAAGGGUUCACGUCGCAGCCCCUGUCAGAUUCUGGUGAAUCUGCGAAUUCUGCUGUAUAUCUC [A5G C23G] | 0.61
UAACGGGGGGCCACAGCAGAAGCGUUCACGUCGCAGCCCCUGUUAGAUUCUGGUGAAUCUGCGAAUUCUGCUGUAUAUCUC [A5G C44U] | 0.43
UAACGGGGGGCAACAGCAGAAGCGUUCACGUCGCAGCCCCUGUCAGAUUCUGGUGAAUCUGCGAAUUCUGCUGUAUAUCUC [A5G C12A] | 0.4
UAACGGGGGGCUACAGCAGAAGCGUUCACGUCGCAGCCCCUGUCAGAUUCUGGUGAAUCUGCGAAUUCUGCUGUAUAUCUC [A5G C12U] | 1.12
UAACGGGGGGCCACAGCAGAAGCGUUCACGUCGCAGCCCCUGUCAGAUUCUGGUGAAUCUGCGAAUUCUGCUGUAUAUAUC [A5G C79A] | 1.01
UAACGGGGGGCCACAGCAGAAGCGUUCACGUCGCAGCCCCUGUCAGAUUCUGGUGAAUCUGCGAAUUCUGCUGUAUAUUUC [A5G C79U] | 0.92
UAACGGGGGGCCACAGCAGAAGCGUUCACGUGGCAGCCCCUGUCAGAUUCUGGUGAAUCUGCGAAUUCUGCUGUAUAUCUC [A5G C32G] | 0.39
UAACGGGGGGCCACAGCAGAAGCGUUCACGUAGCAGCCCCUGUCAGAUUCUGGUGAAUCUGCGAAUUCUGCUGUAUAUCUC [A5G C32A] | 0.28
UAACGGGGGGCCACAGCAGAAGCGUUCACGUUGCAGCCCCUGUCAGAUUCUGGUGAAUCUGCGAAUUCUGCUGUAUAUCUC [A5G C32U] | 0.48
UAACGGGGGGCCACAGCAGAAGCGUUCACGUCGCAGCCCCUGUCAGAUUUUGGUGAAUCUGCGAAUUCUGCUGUAUAUCUC [A5G C50U] | 0.5
UAACGGGGGGCCACAGCAGAAGCGUUCAGGUCGCAGCCCCUGUCAGAUUCUGGUGAAUCUGCGAAUUCUGCUGUAUAUCUC [A5G C29G] | 0.57
UAACGGGGGGCCACAGCAGAAGCGUUCAUGUCGCAGCCCCUGUCAGAUUCUGGUGAAUCUGCGAAUUCUGCUGUAUAUCUC [A5G C29U] | 0.26
UAACGGGGGGCCACAGCAGAAGCGUUCACGUCGCAGCCCCUGUCAGAUUCUGGUGAAUAUGCGAAUUCUGCUGUAUAUCUC [A5G C59A] | 0.2
UAACGGGGGGCCACAGCAGAAGCGUUCACGUCGCAGCCCCUGUCAGAUUCUGGUGAAUUUGCGAAUUCUGCUGUAUAUCUC [A5G C59U] | 0.65
UAACGGGGGGCCACAGCAGAAGCGUUCACGUCGCAGUCCCUGUCAGAUUCUGGUGAAUCUGCGAAUUCUGCUGUAUAUCUC [A5G C37U] | 0.63
